The values below come from PMC9834230, “The HAPSTR2 retrogene buffers stress signaling and resilience in mammals” (Nature Communications, 2023).

This data set concerns the molecule itself. Put plainly: SEC; analytical; 500 µg protein on Superdex 200 Increase 10/300 GL in PBS with 1 mM DTT, 0.3 mL/minute, 4 °C; stoichiometry estimated against standards.

B1: recombinant maltose-binding protein (MBP)-tagged HAPSTR2 (natural protein, human, UniProt A0A7P0TBJ1 1-273, looked up)
chain: MEEQQKEGEAEVAEHWFSKWERQCLAEAEQEEQLPPELQEEAAAELAGLKSEKQKLWHLFQISATAVAQLYKDSGCQQQGLSMWDPFQNAAMAVTSLYKESGDAHQRSFDLGVQVGHQRRIKDVLEWVKKGRSTIRREDLISFLCGKVPPAPPPPRTPRTPPKPPTGVTSQAVATESSSSVDVDLQPFQEAIALHGLSGAMAGISMRSGDSPQDSGVASSGRRKTSFLEDDLNPFDSEELALHLDSGGIRKRTSAQCSDGITDSPIQKRNRMV
notes: HAPSTR2, human; Vector pDest-HisMBP (Addgene 11085); No cleavage of the tags is described; Homo-oligomer by SEC; also called MBP-HAPSTR2; H2; source: E. coli BL21 (DE3), purified (Ni-NTA, dialysis); not shown: MBP, N-terminal, kept
Consider B1, for which the binding result is on record as “binds”.
